Measured values from US20230346916A1 (NEW YORK BLOOD CENTER, published 2023).

B1: human DPP4 (hDPP4) receptor expressed on 293T cells (receptor)
chain: MKTPWKVLLGLLGAAALVTIITVPVVLLNKGTDDATADSRKTYTLTDYLKNTYRLKLYSLRWISDHEYLYKQENNILVFNAEYGNSSVFLENSTFDEFGHSINDYSISPDGQFILLEYNYVKQWRHSYTASYDIYDLNKRQLITEERIPNNTQWVTWSPVGHKLAYVWNNDIYVKIEPNLPSYRITWTGKEDIIYNGITDWVYEEEVFSAYSALWWSPNGTFLAYAQFNDTEVPLIEYSFYSDESLQYPKTVRVPYPKAGAVNPTVKFFVVNTDSLSSVTNATSIQITAPASMLIGDHYLCDVTWATQERISLQWLRRIQNYSVMDICDYDESSGRWNCLVARQHIEMSTTGWVGRFRPSEPHFTLDGNSFYKIISNEEGYRHICYFQIDKKDCTFITKGTWEVIGIEALTSDYLYYISNEYKGMPGGRNLYKIQLSDYTKVTCLSCELNPERCQYYSVSFSKEAKYYQLRCSGPGLPLYTLHSSVNDKGLRVLEDNSALDKMLQNVQMPSKKLDFIILNETKFWYQMILPPHFDKSKKYPLLLDVYAGPCSQKADTVFRLNWATYLASTENIIVASFDGRGSGYQGDKIMHAINRRLGTFEVEDQIEAARQFSKMGFVDNKRIAIWGWSYGGYVTSMVLGSGSGVFKCGIAVAPVSRWEYYDSVYTERYMGLPTPEDNLDHYRNSTVMSRAENFKQVEYLLIHGTADDNVHFQQSAQISKALVDVGVDFQAMWYTDEDHGIASSTAHQHIYTHMSHFIKQCFSLP
notes: whole, on cells
B2: soluble human DPP4 (sDPP4) receptor (receptor)
chain: SRKTYTLTDYLKNTYRLKLYSLRWISDHEYLYKQENNILVFNAEYGNSSVFLENSTFDEFGHSINDYSISPDGQFILLEYNYVKQWRHSYTASYDIYDLNKRQLITEERIPNNTQWVTWSPVGHKLAYVWNNDIYVKIEPNLPSYRITWTGKEDIIYNGITDWVYEEEVFSAYSALWWSPNGTFLAYAQFNDTEVPLIEYSFYSDESLQYPKTVRVPYPKAGAVNPTVKFFVVNTDSLSSVTNATSIQITAPASMLIGDHYLCDVTWATQERISLQWLRRIQNYSVMDICDYDESSGRWNCLVARQHIEMSTTGWVGRFRPSEPHFTLDGNSFYKIISNEEGYRHICYFQIDKKDCTFITKGTWEVIGIEALTSDYLYYISNEYKGMPGGRNLYKIQLSDYTKVTCLSCELNPERCQYYSVSFSKEAKYYQLRCSGPGLPLYTLHSSVNDKGLRVLEDNSALDKMLQNVQMPSKKLDFIILNETKFWYQMILPPHFDKSKKYPLLLDVYAGPCSQKADTVFRLNWATYLASTENIIVASFDGRGSGYQGDKIMHAINRRLGTFEVEDQIEAARQFSKMGFVDNKRIAIWGWSYGGYVTSMVLGSGSGVFKCGIAVAPVSRWEYYDSVYTERYMGLPTPEDNLDHYRNSTVMSRAENFKQVEYLLIHGTADDNVHFQQSAQISKALVDVGVDFQAMWYTDEDHGIASSTAHQHIYTHMSHFIKQCFSLP
notes: also called hDPP4 in solution

What was measured:
[1] = target: T1, SARS-CoV-2 RBD-Fc fusion protein (residues 331-524 of SARS-CoV-2 S protein with a C-terminal Fc of human IgG1) (SARS-CoV-2; human); experiment: flow cytometry on hDPP4/293T cells
T1 construct: also called SARS-CoV-2 RBD protein; SARS-CoV-2 RBD-Fc protein

[2] = target: T1, SARS-CoV-2 RBD-Fc fusion protein …; experiment: ELISA, RBD-Fc coated at 1 µg/ml, sDPP4 serially diluted

Row | Binder | binding result [1] | binding result [2]
1 | B1 | no binding (tested: 20 µg/ml) | –
2 | B2 | – | no binding
